Results published in the supplement of paper PMC10899765.

Assays:
Conditions in all cases: 20 nM; 72 h
MCF10A [1] = test: percent viability (nuclei count relative to siNT); higher = more viable cells
Description: (§1)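 After 72 h, cells were fixed and stained with Hoechst and anti-fibrillarin, and nucleoli per nucleus were counted with CellProfiler. Values are plate-adjusted percent effect for the one-nucleolus and 5+ nucleoli phenotypes, normalised to siNT (0%) and to the positive controls siNOL11 or siKIF11 (100%), as the mean of biological triplicates. Percent viability is the nuclei count relative to siNT.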

MCF10A [2] = test: 5+ nucleoli phenotype percent effect (relative to siNT 0% and siKIF11 100%); higher = more cells with five or more nucleoli
Description: as §1

MCF10A [3] = test: one-nucleolus phenotype percent effect (relative to siNT 0% and siNOL11 100%); higher = more cells with one nucleolus (ribosome biogenesis inhibition)
Description: as §1

| Sequence | percent viability (MCF10A [1]) [%] | 5+ nucleoli phenotype percent effect (MCF10A [2]) [%] | one-nucleolus phenotype percent effect (MCF10A [3]) [%] |
| --- | --- | --- | --- |
| UGGUCUAGGAUUGUUGGAGGAG [hsa-miR-601] | 58.5 | -3.95 | 22.9 |
| UGGUCUGUCUCUGCCCUGGCAC [hsa-miR-6753-3p] | 21.6 | -4.31 | 39.6 |
| UGGUCUGUUCAUUCUCUCUUUUUGGCC [hsa-miR-7107-3p] | 15 | 0.728 | 13.2 |
| UGGUGCGGAGAGGGCCCACAGUG [hsa-miR-675-5p] | 39 | -14 | 29.5 |
| UGGUGGAGGAAGAGGGCAGCUC [hsa-miR-6880-5p] | 3.74 | -19.7 | -4.17 |
| UGGUGGGCACAGAAUCUGGACU [hsa-miR-541-3p] | 24.6 | -0.0057 | 17.6 |
| UGGUGGGCCGCAGAACAUGUGC [hsa-miR-654-5p] | 31.2 | -8.23 | 20.4 |
| UGGUGGGUGGGGAGGAGAAGUGC [hsa-miR-6769b-5p] | 18.8 | -22.4 | 23.2 |
| UGGUGGUUUACAAAGUAAUUCA [hsa-miR-876-3p] | 10.9 | -33.4 | 57.7 |
| UGGUUCUCUUGUGGCUCAAGCGU [hsa-miR-597-3p] | 22.4 | -23 | 44.1 |
| UGGUUGACCAUAGAACAUGCGC [hsa-miR-380-5p] | 17.6 | -0.352 | 13.4 |
| UGGUUUACCGUCCCACAUACAU [hsa-miR-299-5p] | 27.9 | -19.4 | 24.1 |
| UGUAAACAUCCCCGACUGGAAG [hsa-miR-30d-5p] | 62.7 | 30.3 | 0.554 |
| UGUAAACAUCCUACACUCAGCU [hsa-miR-30b-5p] | 93 | 34.3 | -9.57 |
| UGUAAACAUCCUACACUCUCAGC [hsa-miR-30c-5p] | 69.4 | 21.9 | 3.37 |
| UGUAAACAUCCUCGACUGGAAG [hsa-miR-30a-5p] | 47.2 | 9.35 | -3.76 |
| UGUAAACAUCCUUGACUGGAAG [hsa-miR-30e-5p] | 61.8 | 36.3 | 0.878 |
| UGUAACAGCAACUCCAUGUGGA [hsa-miR-194-5p] | 84.3 | -7.22 | 8.64 |
| UGUAGAGCAGGGAGCAGGAAGCU [hsa-miR-4732-5p] | 23.8 | -0.0062 | 6.48 |
| UGUAGAUACGAGCACCAGCCAC [hsa-miR-3935] | 38.5 | 20.9 | -7.2 |
| UGUAGGAACAGUUGAAUUUUGGCU [hsa-miR-8065] | 58.9 | 19.8 | -24.6 |
| UGUAGGCAUGAGGCAGGGCCCAGG [hsa-miR-6806-5p] | 32.5 | 44.5 | -16.3 |

| Sequence | percent viability (MCF10A [1]) [%] | 5+ nucleoli phenotype percent effect (MCF10A [2]) [%] | one-nucleolus phenotype percent effect (MCF10A [3]) [%] |
| --- | --- | --- | --- |
| UGUAGUGUUUCCUACUUUAUGGA [hsa-miR-142-3p] | 82.8 | -20 | 23.4 |
| UGUAGUUGUAUUGUAUUGCCAC [hsa-miR-4703-3p] | 40.8 | -29.5 | 6.74 |
| UGUCACCCGCUCCUUGCCCAG [hsa-miR-6879-3p] | 47.6 | -23.3 | 3.65 |
| UGUCACUCGGCUCGGCCCACUAC [hsa-miR-668] | 60.6 | -8.26 | -1.34 |
| UGUCAGUGACUCCUGCCCCUUGGU [hsa-miR-4697-3p] | 98.6 | 3.98 | -7.45 |
| UGUCAGUUUGUCAAAUACCCCA [hsa-miR-223-3p] | 86.9 | 7.19 | -4.68 |
| UGUCCUCUGUUCCUCAG [hsa-miR-6852-3p] | 17.2 | 9.01 | 43.6 |
| UGUCGUGGGGCUUGCUGGCUUG [hsa-miR-4440] | 58.9 | -27.6 | 2.65 |
| UGUCUACAUUAAUGAAAAGAGC [hsa-miR-3618] | 66.2 | -1.03 | 16.7 |
| UGUCUACUACUGGAGACACUGG [hsa-miR-934] | 37.1 | -13.1 | 22.5 |
| UGUCUAUACUCUGUCACUUUAC [hsa-miR-4796-5p] | 34.7 | -19.7 | 45.9 |
| UGUCUCUCGCCCUUGGCCUUAG [hsa-miR-6895-3p] | 19.4 | -32.5 | 34.7 |
| UGUCUCUGCUGGGGUUUCU [hsa-miR-593-3p] | 18.1 | -39.2 | 55.4 |
| UGUCUGCCCGCAUGCCUGCCUCU [hsa-miR-346] | 32.5 | -26.4 | 31 |
| UGUCUUACUCCCUCAGGCACAU [hsa-miR-550a-3p] | 60.2 | -24 | 15.4 |
| UGUCUUCUCUCCUCCCAAACAG [hsa-miR-6740-3p] | 9.9 | -27.6 | 42.8 |
| UGUCUUGCAGGCCGUCAUGCA [hsa-miR-431-5p] | 28.5 | -40.8 | 53.9 |
| UGUCUUUCUUCUCUCCCUUGCAG [hsa-miR-6830-3p] | 19.9 | -30.3 | 58 |
| UGUGACAAUAGAGAUGAACAUG [hsa-miR-4504] | 39.9 | -15.9 | 30.4 |
| UGUGACAGAUUGAUAACUGAAA [hsa-miR-542-3p] | 39.5 | -17.1 | 65.1 |
| UGUGACCCUAGAAUAAUUAC [hsa-miR-7973] | 29.4 | -4.82 | -2.95 |
| UGUGACUGCAUUAUGAAAAUUCU [hsa-miR-3118] | 26.7 | 5.27 | 20.9 |
